Experimental data taken from patent US20150165067A1 (Eli Lilly, published 2015).

Legend:
[1] = target: human FGFR3 on RT-112 bladder tumor cells (wild type and FGFR3-TACC3 fusion receptors) (human) (UniProt P22607); test: cell-based or functional assay
[2] = target: human FGFR3 S249C, endogenous on UMUC-14 bladder tumor cells (human) (UniProt P22607); test: cell-based or functional assay
[3] = target: human FGFR3 S249C, endogenous on UMUC-14 bladder tumor cells (human) (UniProt P22607); test: flow cytometry, 15 µg/mL Alexa488-labeled Antibody 1 on UMUC-14 cells, quantified with Quantum Simply Cellular beads
[4] = target: FGFR3-TACC3 fusion on RT-4 bladder tumor cells (TACC3 exon-4) (human, UniProt Q9Y6A5 140-838, limits assumed); test: cell-based or functional assay
[5] = target: human FGFR3 on RT-112 bladder tumor cells (wild type and FGFR3-TACC3 fusion receptors) (human) (UniProt P22607); test: flow cytometry, 15 µg/mL Alexa488-labeled Antibody 1 on RT-112 cells, quantified with Quantum Simply Cellular beads
[6] = target: human FGFR3 wild type, endogenous on tumor cell lines (BFTC-905, KU-19-19, UMUC-3) (human) (UniProt P22607); test: flow cytometry, 15 µg/mL Alexa488-labeled Antibody 1 on KU-19-19 cells, quantified with Quantum Simply Cellular beads
[7] = target: human FGFR3 Y373C, endogenous on KMS-11 multiple myeloma cells (human) (UniProt P22607); test: flow cytometry, 15 µg/mL Alexa488-labeled Antibody 1 on KMS-11 cells, quantified with Quantum Simply Cellular beads
[8] = target: human FGFR3 wild type, endogenous on tumor cell lines (BFTC-905, KU-19-19, UMUC-3) (human) (UniProt P22607); test: flow cytometry, 15 µg/mL Alexa488-labeled Antibody 1 on BFTC-905 cells, quantified with Quantum Simply Cellular beads
[9] = target: T1, human FGFR3(IIIb) WT on BaF3 cells (human, UniProt P22607 23-808); test: cell-based or functional assay
[10] = target: T2, human FGFR3 on RT-112 bladder tumor cells (wild type and FGFR3-TACC3 fusion receptors) (human, UniProt P22607 23-806); test: cell-based or functional assay
[11] = target: human FGFR3 on Kato-III gastric tumor cells (human, UniProt P22607 23-806); test: cell-based or functional assay
[12] = target: T3, huFGFR3(IIIb), immobilized receptor (human, UniProt P22607-2 23-377, limits assumed); test: SPR, Biacore T200, 25 C, huFGFR3(IIIb) amine-coupled on CM5 chip, Conjugate 1 as analyte, 1:1 model, n=3
T3 construct: Amine-coupled to a CM5 chip; also called human FGFR3(IIIb)
T3 sequence (looked up): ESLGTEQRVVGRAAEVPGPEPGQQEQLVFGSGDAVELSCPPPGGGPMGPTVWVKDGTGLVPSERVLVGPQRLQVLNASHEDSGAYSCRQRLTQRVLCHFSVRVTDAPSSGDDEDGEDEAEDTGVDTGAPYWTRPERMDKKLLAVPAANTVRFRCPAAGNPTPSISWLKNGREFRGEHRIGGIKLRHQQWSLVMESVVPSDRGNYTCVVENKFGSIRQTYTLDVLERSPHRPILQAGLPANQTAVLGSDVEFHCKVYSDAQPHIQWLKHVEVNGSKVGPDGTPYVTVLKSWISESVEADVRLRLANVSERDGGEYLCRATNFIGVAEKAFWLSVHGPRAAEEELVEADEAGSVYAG
Experimental: Use a CM5 chip containing immobilized receptor huFGFR3(IIIb) (generated using standard NHS-EDC amine coupling) on 2 flow cells. Prepare samples of Conjugate 1 by 2 fold serial dilutions starting at 60 nM, 6 dilutions total into running buffer. Immobilize receptor at 2.5 μg/mL (55 RU). Each analysis cycle consists of: (1) sample injection at 30 μL/min with 180 sec contact time, (2) dissociation by injection of buffer for 900 sec at 30 μL/min, (3) regeneration in a 0.5% solution of SDS contact time 30 sec at a flow rate of 40 μL/min. Process data using standard double-referencing and fit to a 1:1 binding model using Biacore® 2000 Evaluation software, version 4.1, to determine the association rate (kₒₙ, M⁻¹s⁻¹ units), dissociation rate (koff, s⁻¹ units), and Rmax (RU units). The equilibrium dissociation constant (KD) is calculated from the relationship of KD=koff/kₒₙ. KD is in molar units.

human FGFR3(IIIb)-Fc = target: T4, human FGFR3(IIIb)-Fc (human, UniProt P22607-2 23-377, limits assumed); test: MSD electrochemiluminescence plate assay: blocking of ruthenium-labeled FGF1 (1 ug/mL, with heparin) binding to coated human FGFR3(IIIb)-Fc
T4 construct: Coated on the MSD plate; not shown: Fc part
T4 sequence (looked up): T3 sequence (looked up)

[13] = target: T2, human FGFR3 on RT-112 bladder tumor …; test: cell-based or functional assay; remark: listed apart in the source
[14] = target: human FGFR3 wild type, endogenous on tumor cell lines (BFTC-905, KU-19-19, UMUC-3) (human, UniProt P22607 23-806); test: cell-based or functional assay
[15] = target: human FGFR3(IIIb) Y375C on BaF3 cells (human, UniProt P22607 23-808); test: cell-based or functional assay
[16] = target: T1, human FGFR3(IIIb) WT on BaF3 cells; test: cell-based or functional assay; remark: listed apart in the source
[17] = target: human FGFR3(IIIb) G372C on BaF3 cells (human, UniProt P22607 23-808); test: cell-based or functional assay
[18] = target: human FGFR3(IIIb) S249C on BaF3 cells (human, UniProt P22607 23-808); test: cell-based or functional assay
[19] = target: human FGFR3(IIIb) R248C on BaF3 cells (human, UniProt P22607 23-808); test: cell-based or functional assay
[20] = target: T3, huFGFR3(IIIb), immobilized receptor; test: SPR (Biacore); the sentence names no antigen or format, the section is on immobilized huFGFR3(IIIb); naked Antibody 1, not Conjugate 1

B1: Antibody 1-Alexa488 (antibody, human IgG1, lambda, V domains shown)
VH: EVQLVQSGAEVKKPGASVKVSCKASGYMFTSYGISWVRQAPGQGLEWMGWVSTYNGDTNYAQKFQGRVTVTTDTSTSTAYMELRSLRSEDTAVYYCARVLGYYDSIDGYYYGMDVWGQGTTVTVSS
VL: QSVLTQPPSLSVAPGKTATFTCGGNNIGDKSVHWYRQKPGQAPVLVMYLDTERPSGIPERMSGSNFGNTATLTITRVEAGDEADYYCQVWDSGSDHVVFGGGTKLTVLG
modifications: Alexa488 label (sites not given)
- internalization in RT-112 cells, cell-associated fluorescence by flow cytometry over 48 h (fold over background) [1]: 7
- internalization in UMUC-14 cells, cell-associated fluorescence by flow cytometry over 48 h (fold over control) [2]: > 9
- FGFR3 cell surface expression (ABC) [3]: 27000 ABC
- internalization in RT-4 cells, cell-associated fluorescence by flow cytometry over 48 h [4]: ~7 fold over background
- FGFR3 cell surface expression (ABC) [5]: 16000 ABC
- FGFR3 cell surface expression (ABC) [6]: < 4000 ABC
- FGFR3 cell surface expression (ABC) [7]: 120000 ABC
- FGFR3 cell surface expression (ABC) [8]: 11000 ABC

B2: Conjugate 1 (antibody, human IgG1, lambda, V domains shown)
VH: B1 VH
VL: B1 VL
modifications: DM4 attached through the sulfo-SPDB linker to available lysine residues (positions not given); DAR 3.5 ± 0.5 for the whole antibody
notes: also called Antibody 1-sulfo-SPDB-DM4; the conjugate of the present invention
- cytotoxicity IC50 (nM), transfected Baf3-FGFR3(IIIb) cells [9]: 2.5 nM
- cytotoxicity IC50 (nM), RT112 cells [10]: 2.1 nM
- cytotoxicity IC50 (nM), Kato-III cells [11]: 5.4 nM
- Kd [12]: 0.823 nM
- koff [12]: 0.000187 s⁻¹
- kon [12]: 227000 M⁻¹ s⁻¹
- IC50 (human FGFR3(IIIb)-Fc): 3.6 nM
- Cytotoxicity Conjugate 1 IC50, RT-112 (bladder) cells, Cell Titer-Glo, 96 h [13]: 1.3 nM
- Cytotoxicity Conjugate 1 IC50, BFTC-905 (bladder) cells, Cell Titer-Glo, 96 h [14]: 2.7 nM

B3: Antibody 1 (antibody, human IgG1, lambda, V domains shown)
VH: B1 VH
VL: B1 VL
notes: Human monoclonal antibody with a lambda light chain; also called naked Antibody 1; anti-FGFR3 antibody
- IC50 for neutralizing FGF1 (51.6 nM)-induced 3H-thymidine incorporation in BaF3 cells [15]: 8.77 nM
- IC50 for neutralizing FGF9 (34.72 nM)-induced 3H-thymidine incorporation in BaF3 cells [15]: 1.42 nM
- IC50 for neutralizing FGF1 (51.6 nM)-induced 3H-thymidine incorporation in BaF3 cells [16]: 4.2 nM
- IC50 for neutralizing FGF9 (34.72 nM)-induced 3H-thymidine incorporation in BaF3 cells [16]: 0.4 nM
- IC50 for neutralizing FGF1 (51.6 nM)-induced 3H-thymidine incorporation in BaF3 cells [17]: 4.81 nM
- IC50 for neutralizing FGF1 (51.6 nM)-induced 3H-thymidine incorporation in BaF3 cells [18]: 2.17 nM
- IC50 for neutralizing FGF9 (34.72 nM)-induced 3H-thymidine incorporation in BaF3 cells [18]: 0.46 nM
- IC50 for neutralizing FGF1 (51.6 nM)-induced 3H-thymidine incorporation in BaF3 cells [19]: 1.32 nM
- Kd [20]: 0.13 nM
